According to PMC3596498:

Target: SciP (Caulobacter crescentus)

half-life of purified SciP (0.5 µM) degraded by purified Lon (0.5 µM) in vitro: 12 min
B1: C. crescentus Lon (enzyme)
chain: MSELRTLPVLPLRDIVVFPHMVVPLFVGRDKSVRALEEVMRGDKQILLVTQKNSADDDPAPGDIFEVGVLATVLQLLKLPDGTVKVLVEGKARAAVVSFTDQESYYEAQIGEVSEDDGAGPEAEALSRAVVEQFENYVKLNKKVPPEALASIPQIAEPGKLADSIAAHLSVKIGDKQNLLEIFDVVKRLEKVFALMEGEISVLQVEKKIRSRVKRQMEKTQREYYLNEQMKAIQRELGDPDDARDELIDLEKRIKKTKLSKEARTKAESELKKLRNMSPMSAESTVVRNYLDWLLSIPWGKAKTKKIDLVESEGILDADHYGLEKVKERILEYLAVQARTNSLKGPILCLVGPPGVGKTSLGKSIAKATGREFVRMSLGGVRDEAEIRGHRRTYIGSMPGKVVQSMKKAKTTNAFVLLDEIDKMGSDYRGDPASALLEVLDPSQNSTFGDHYLEVDYDLSQVMFVTTANSLNMPQPLLDRMEIIRIPGYTEDEKLEIAKRHILPKLAKDHGLKPAEFIVPDKAIRDLIRYYTREAGVRSLERELGALARKTVRDLAREKVASITIDDERLAKYAGVKKYRYGETDEVDQVGIVTGLAWTEFGGDILTIEAVKMPGKGRMQITGNLKDVMKESIAAANSYVRSRALQFGIKPPVFEKTDVHIHVPDGATPKDGPSAGIAMALAMVSVLTGIPIRKDIAMTGEITLRGRVTAIGGLKEKLLAALRSGVKTVLIPQENEKDLADVPQTVKDGLEIIPVSTVDEVLKHALTGPLTPVEWNEAEEPITTSAKKDDGDSDAMLTH
